The values below come from a protein production outcome set (Wang et al. 2014).

This data set can be described thus: label from the status in PepcDB records.
In the case of “MSLRAVRLHAKWDPRPEFKLGPKDIEGKLTWLGSKVWRYPEVRVEEVPEPRIEKPTEIIIKVKACGICGSDVHMAQTDEEGYILYPGLTGFPVTLGHEFSGVVVEAGPEAINRRTNKRFEIGEPVCAEEMLWCGHCRPCAEGFPNHCENLNELGFNVDGAFAEYVKVDAKYAWSLRELEGVYEGDRLFLAGSLVEPTSVAYNAVIVRGGGIRPGDNVVILGGGPIGLAAVAILKHAGASKVILSEPSEVRRNLAKELGADHVIDPTKENFVEAVLDYTNGLGAKLFLEATGVPQLVWPQIEEVIWRARGINATVAIVARADAKIPLTGEVFQVRRAQIVGSQGHSGHGTFPRVISLMASGMDMTKIISKTVSMEEIPEYIKRLQTDKSLVKVTMLNEGHHHHHH”, the protein production result was “not failed”.

Regarding “MSLRVIDTHCDALYKLQAGKGKYTFQDAEELDVNFERLIEAKMLLQGFAIFLDEDIPVEHKWKKAVEQVNIFKQHVLHKGGIIHHVKKWCDLENLPEDKIGAMLTLEGIEPIGRDLDKLTQLLDGGVLSVGLTWNNANLAADGIMEERGAGLTRFGKDIIHLLNERKVFTDVSHLSVKAFWETLEQAEFVIASHSNAKAICSHPRNLDDEQIKAMIEHDAMIHVVFYPLFTTNNGVADTEDVIRHIDHICELGGLKNIGFGSDFDGIPDHVKGLEHVGKYQSFLETLEKHYTKEEIEGFASRNFLNHLPKEGHHHHHH”, the protein production result is “not failed”.

With “MSLSAKSSLKEVAELAGVGYATASRALSGKGYVSPQTREKVQAAAKELNYVPNQLAKALREHRSALVGVIVPDLSNEYYSESLQTIQQDLKAAGYQMLVAEANSVQAQDVVMESLISIQAAGIIHVPVVGSIAPEGIPMVQLTRGELGPGFPRVLCDDEAGFFQLTESVLGGSGMNIAALVGEESLSTTQERMRGISHAASIYGAEVTFHFGHYSVESGEEMAQVVFNNGLPDALIVASPRLMAGVMRAFTRLNVRVPHDVVIGGYDDPEWYSFVGAGITTFVPPHEEMGKEAVRLLVDLIENPELPTGDVVLQGQVILRGSSTHEGHHHHHH”, the protein production entry is “not failed”.

For “MSLSDQEFDEKYLELSEELKQSEKHKGTLDQGASQFLNAIEFVLRVYRQTEVIYVYAHLKNDQDTGNTDYQALYARASSLFSKVSEAVSWFEPEILQLSDDQIWQYFKEEPKLEVYRHYIQQIVDNRAHVLSAEQESLLAGAGEIFDASSDTFAVLNNADLVFPTIEGENGEIVQLSHGVYGQLLESTDRRVREAAFKGLYSVYEQFRNTFASTLGTHIKGHNFKAKVRNYSSAREASLSNNHIPESVYDTLVDVVNKHLPLLHRYMELRKRLLEVEKLHMYDLYTPVLGEAPITFTYEEAKEKALEALKPMGEEYMAIVEKAFSERWIDVVENKGKRSGAYSSGSYDTNPYILLNWHDTLDQLFTLVHEMGHSVHSYFTRSNQPYVYGDYSIFLAEIASTTNENILTEYLLETEKDPRVRAYVLNHYLDGFKGTVFRQTQFAEFEHFMHTEDEKGVPLTSEYLSDSYGKLNAKYYGPAVEEDPEIKFEWSRIPHFYYNYYVFQYSTGFSAASALAKKILNQEPEALENYLAYLKAGNSDYPVEVMKKAGVDMTQAAYIEDAMSMFEQRLNELEELIDREGHHHHHH”, the protein production result is “not failed”.

“MSLSDTIPVFDGHNDFLLRLLRNPANRETIWLKGDGTGHLDLPRMKEGGFAGGFFAIYVPSPQAHDAAHFEAMMDAPPFELPLPPMIRAEQAQPVALAMAGHLLWMERAARGRFKVCRTAAEVRSCHADGIVSGIMHMEGAEAIGADLDALHLFHSLGLRSLGPVWSRPTVFGHGVPFRFPGSPDTGEGLTEAGRRLVAECNRLKIMLDLSHLNEKGFDDVARLSDAPLVATHSNAHAVTPSTRNLTDRQLAMIRESRGMVGLNFATSFLREDGRRSAEMGWEPVLRHLDHLIDRLGEDHVGMGSDFDGATIPQGIADVTGLPALQAAMRAHGYDEPLMRKLCHENWYGLLERTWGEGHHHHHH”: the protein production result is listed as “not failed”.

With “MSLSHKAWQNAHAMYENDACAKALGIDIISMDEGFAVVTMTVTAQMLNGHQSCHGGQLFSLADTAFAYACNSQGLAAVASACTIDFLRPGFAGDTLTATAQVRHQGKQTGVYDIEIVNQQQKTVALFRGKSHRIGGTITGEAEGGSHHHHHH”, the protein production entry is recorded as “not failed”.

As for “MSLSINSREVLAEKVKNAVNNQPVTDMHTHLFSPNFGEILLWDIDELLTYHYLVAEVMRWTDVSIEAFWAMSKREQADLIWEELFIKRSPVSEACRGVLTCLQGLGLDPATRDLQVYREYFAKKTSEEQVDTVLQLANVSDVVMTNDPFDDNERISWLEGKQPDSRFHAALRLDPLLNEYEQTKHRLRDWGYKVNDEWNEGSIQEVKRFLTDWIERMDPVYMAVSLPPTFSFPEESNRGRIIRDCLLPVAEKHNIPFAMMIGVKKRVHPALGDAGDFVGKASMDGVEHLLREYPNNKFLVTMLSRENQHELVVLARKFSNLMIFGCWWFMNNPEIINEMTRMRMEMLGTSFIPQHSDARVLEQLIYKWHHSKSIIAEVLIDKYDDILQAGWEVTEEEIKRDVADLFSRNFWRFVGRNDHVTSVKVEQQTEGHHHHHH”, the protein production result is “not failed”.

In the case of “MSLSLLITSITINTSHLQGMLGFYRIIGFQFTASKVDKGSEVHRAVHNGVEFSLYSIQNPQRSQIPSLQLGFQITDLEKTVQELVKIPGAMCILDPTDMPDGKKAIVLDPDGHSIELCELEGHHHHHH”, the protein production result was “not failed”.

For “MSLSNSKSTTTKDTVATLPNGASSLTETYGLWSINCGIQEGKKVCFMHRQEVNDQNRVVVAMSVVLNADGVVSGNLTVPFGILVSKPVRLQVDEGKAVIETGIRTCVPAGCIVPIVFDKNYVAALRAGKHLKLAMTIAAPGEPPLNDLFVQLNGFSNALNRLIALQKEGHHHHHH”, the protein production entry is recorded as “not failed”.

Turning to “MSLSQNAPKSKGIKREELKKQYEDVEDEEEIGSDDDLTRGKRRKTEKEKQKLEESELVEMKKLENLIFGSLYSPVTFGKEEEEDGSALFHVDRSAVRQIPDYEDDGDDDEELSDEENGQVVAIRKGEAAWEDEEEKQINVDIASVNRLRKLRKEENEGLISGSEYIARLRAHHAKLNPGTDWARPDSQIVDGESSDDDDTQDGGVDDILRTNEDLVVKSRGNKLCAGRLEYSKLVDANAADPSNGPINSVHFHQNAQLLLTAGLDRRLRFFQIDGKRNTKIQSIFLEDCPIRKAAFLPNGSQVIVSGRRKFFYSFDLEKAKFDKIGPLVGREEKSLEYFEVSQDSNTIAFVGNEGYILLVSTKTKELIGTLKMNGSVRSLAFSEDGKHLLSSGGDGQVYVWDLRTMKCLYKGVDEGSTCGTSLCSSLNGALFASGTDRGIVNIYKKSEFVGGKRKPIKTVDNLTSKIDFMKFNHDAQILAIVSTMNKNSVKLVHVPSLTVFSNWPPPNSTMHYPRCLDFSPGSGFMAMGNAAGKVLLYKLHHYQNA”, the protein production entry is given as “failed”.

As to “MSLSRSEEMHRLTENVYKTIMEQFNPSLRNFIAMGKNYEKALAGVTYAAKGYFDALVKMGELASESQGSKELGDVLFQMAEVHRQIQNQLEEMLKSFHNELLTQLEQKVELDSRYLSAALKKYQTEQRSKGDALDKCQAELKKLRKKSQGSKNPQKYSDKELQYIDAISNKQGELENYVSDGYKTALTEERRRFCFLVEKQCAVAKNSAAYHSKGKELLAQKLPLWQQA”, the protein production result is “not failed”.

Regarding “MSLSSGEHEASRVLRERDYRWEGTEEEAYKAEGTHFSGARRQTLVGRPAGQEAPAFETRYFEVEPGGYTTLERHEHTHVVMVVRGHAEVVLDDRVEPLTPLDCVYIAPHAWHQIHATGANEPLGFLCIVDSDRDRPQRPDADDLARMCADPAVARRIRTEGHHHHHH”, the protein production result is recorded as “not failed”.

For “MSLSTARIMLVDDHPIVREGYRRLIERRPGYAVVAEAADAGEAYRLYRETTPDIVVMDLTLPGPGGIEATRHIRQWDGAARILIFTMHQGSAFALKAFEAGASGYVTKSSDPAELVQAIEAILAGRRAMSPDIAQEIAEERVEGREGHHHHHH”, the protein production entry is given as “not failed”.
